This series addresses Recombinant human GST-TDP-43 (N-terminal GST tag, full length), non-phosphorylated.

Sequence of Recombinant human GST-TDP-43 (N-terminal GST tag, full length), non-phosphorylated (chain, as listed by the source): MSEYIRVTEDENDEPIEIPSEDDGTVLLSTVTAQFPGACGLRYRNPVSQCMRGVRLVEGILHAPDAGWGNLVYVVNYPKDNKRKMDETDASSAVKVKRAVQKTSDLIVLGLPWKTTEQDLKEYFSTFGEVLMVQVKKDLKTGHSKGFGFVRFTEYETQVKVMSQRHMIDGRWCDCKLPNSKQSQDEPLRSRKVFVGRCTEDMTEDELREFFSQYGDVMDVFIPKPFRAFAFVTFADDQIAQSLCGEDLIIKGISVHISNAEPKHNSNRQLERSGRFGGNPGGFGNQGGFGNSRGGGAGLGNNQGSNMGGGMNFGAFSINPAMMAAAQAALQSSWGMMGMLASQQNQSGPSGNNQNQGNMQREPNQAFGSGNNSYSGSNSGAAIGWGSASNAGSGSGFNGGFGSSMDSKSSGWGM

B1: active human recombinant caspase-3 (CHEMICON) (protein)
chain: SGISLDNSYKMDYPEMGLCIIINNKNFHKSTGMTSRSGTDVDAANLRETFRNLKYEVRNKNDLTREEIVELMRDVSKEDHSKRSSFVCVLLSHGEEGIIFGTNGPVDLKKITNFFRGDRCRSLTGKPKLFIIQACRGTELDCGIETDSGVDDDMACHKIPVEADFLYAYSTAPGYYSWRNSKDGSWFIQSLCAMLKQYADKLEFMHILTRVNRKVATEFESFSFDATFHAKKQIPCIVSMLTKELYFYH
On to B1, for which the “in vitro cleavage, SDS-PAGE stained with Coomassie” value was “cleavage of full length TDP-43 by purified cleaved caspase-3, resulting in three distinct fragments of approximately 42, 35, and 25 kD”.

The values above are taken from US20100136573.
